What was measured:
[1] = biological target: T1, CALRdel52 (mutant calreticulin, 52 base pair deletion, Type 1) expressed with MPL on engineered cancer cells (UniProt P27797 18-417); assay: cell-based or functional assay
T1 sequence (looked up): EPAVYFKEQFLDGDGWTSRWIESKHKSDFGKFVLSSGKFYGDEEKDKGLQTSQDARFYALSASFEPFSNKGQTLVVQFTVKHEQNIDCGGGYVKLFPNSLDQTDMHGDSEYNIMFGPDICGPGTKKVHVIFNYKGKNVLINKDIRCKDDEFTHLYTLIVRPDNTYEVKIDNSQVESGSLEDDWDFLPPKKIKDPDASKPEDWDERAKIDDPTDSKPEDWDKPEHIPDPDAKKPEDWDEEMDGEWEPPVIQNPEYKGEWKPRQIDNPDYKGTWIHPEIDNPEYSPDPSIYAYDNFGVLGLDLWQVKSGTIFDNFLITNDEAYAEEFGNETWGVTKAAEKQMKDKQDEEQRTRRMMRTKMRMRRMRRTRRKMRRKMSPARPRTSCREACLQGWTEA

[2] = biological target: T2, CALRins5 (mutant calreticulin, 5 base pair insertion, Type 2) expressed with MPL on engineered cancer cells (UniProt P27797 18-417); assay: cell-based or functional assay
T2 sequence (looked up): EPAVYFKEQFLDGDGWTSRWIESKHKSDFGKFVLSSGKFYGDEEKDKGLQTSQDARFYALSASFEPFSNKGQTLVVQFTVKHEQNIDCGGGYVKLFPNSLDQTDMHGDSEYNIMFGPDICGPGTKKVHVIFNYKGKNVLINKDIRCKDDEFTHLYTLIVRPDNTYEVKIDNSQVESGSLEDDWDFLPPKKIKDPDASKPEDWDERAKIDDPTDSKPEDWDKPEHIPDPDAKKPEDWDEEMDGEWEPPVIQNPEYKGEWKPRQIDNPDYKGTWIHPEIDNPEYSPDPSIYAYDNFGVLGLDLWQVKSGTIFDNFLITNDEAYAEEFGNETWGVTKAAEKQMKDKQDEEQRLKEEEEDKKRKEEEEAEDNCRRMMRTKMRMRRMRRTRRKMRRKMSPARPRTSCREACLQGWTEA

[3] = biological target: T3, Flag/6xhis-CALRdel52 (CALRW12.007) (human, UniProt P27797 18-417); assay: SPR, forced degradation: Thermal
T3 construct: also called human CALRdel52
T3 sequence (looked up): T1 sequence (looked up)

[4] = biological target: T4, Avi/his-CalR-Ins5 (CALRW28.004) (human, UniProt P27797 18-417, limits assumed); assay: SPR, forced degradation: Thermal
T4 construct: also called human CALRins5
T4 sequence (looked up): T2 sequence (looked up)

[5] = biological target: T5, CD3EG-HSA-6xHis (CD3W220.002) (human, UniProt P07766 22-118; P09693 23-103); assay: SPR, forced degradation: Thermal
T5 construct: also called human CD3; not shown: human serum albumin (HSA); 6xHis tag
T5 sequence (P07766 other isoform, or with tags, fused parts or gaps): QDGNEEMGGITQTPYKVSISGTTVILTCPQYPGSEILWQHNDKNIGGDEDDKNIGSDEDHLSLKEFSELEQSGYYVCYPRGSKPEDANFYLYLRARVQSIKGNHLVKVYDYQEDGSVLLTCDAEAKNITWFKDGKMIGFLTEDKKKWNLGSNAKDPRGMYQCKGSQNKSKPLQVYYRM

[6] = biological target: T3, Flag/6xhis-CALRdel52 (CALRW12.007); assay: SPR, forced degradation: Physiological
[7] = biological target: T4, Avi/his-CalR-Ins5 (CALRW28.004); assay: SPR, forced degradation: Physiological
[8] = biological target: T5, CD3EG-HSA-6xHis (CD3W220.002); assay: SPR, forced degradation: Physiological
[9] = biological target: T2, CALRins5 (mutant calreticulin, 5 base …); assay: flow cytometry on OCI-M2 MPL CALRins5 cells, 1 h at 37 C, AF647 secondary antibody, Geometric mean
Experimental: (§1) FIGS. 27A-27F depict binding of different CALRmutxCD3 antibodies to CALRmut-negative or CALRmut-positive cells. Flow cytometry was used to evaluate CALRmutxCD3 binding to CALRmut-negative and CALRmut-positive cancer cells in vitro. CALRmutxCD3 antibodies were tested on a panel of cell lines, engineered to express MPL and CALRmut, after 1 hour 37° C. incubation, with subsequent incubation with secondary AF647-labeled antibody. Geometric mean fluorescence intensity of AF647 was measured to determine antibody binding.

[10] = biological target: T2, CALRins5 (mutant calreticulin, 5 base …); assay: flow cytometry on ELF-153 MPL CALRins5 cells, 1 h at 37 C, AF647 secondary antibody, Geometric Mean
Experimental: as §1, with “FIGS. 21A-21F depict binding” for “FIGS. 27A-27F depict binding”, “different CALRmutxCD3 bispecific antibodies to” for “different CALRmutxCD3 antibodies to”

[11] = biological target: T6, CD3 on primary human pan T cells (human, UniProt P07766 23-207); assay: flow cytometry, CD3+ pan T cells of 6 healthy donors; average over pan T cells of 6 healthy donors; 1 hour 37° C. incubation
T6 construct: whole, on cells; also called CD3e; CD3ε
T6 sequence (P07766 23-207): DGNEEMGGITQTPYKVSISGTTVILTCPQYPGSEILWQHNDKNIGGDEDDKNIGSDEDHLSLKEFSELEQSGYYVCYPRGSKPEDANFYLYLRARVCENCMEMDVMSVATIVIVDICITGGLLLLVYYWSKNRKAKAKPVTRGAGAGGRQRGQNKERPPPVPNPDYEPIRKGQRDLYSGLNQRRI
Experimental: Flow cytometry was used to evaluate the CD3 arm binding of C3CRB73 to CD3+ pan T cells from 6 different healthy human donors. C3CRB73 and NullxCD3 spFv were tested after 1 hour 37° C. incubation with pan T cells.

B1: C3CRB73 CALRmut x CD3 bispecific antibody (bispecific antibody, human IgG1, kappa, L234A L235A)
heavy: EVQLLESGGGLVQPGGSLRLSCAVSGIDLSNNAISWVRQAPGKGLEYVGVIGNTGDTYYADSAKGRFTISRDSSKTTLYLQMNSLRAEDTAVYFCVRGPPSYSSSVKNIWGQGTLVTVSSASTKGPSVFPLAPSSKSTSGGTAALGCLVKDYFPEPVTVSWNSGALTSGVHTFPAVLQSSGLYSLSSVVTVPSSSLGTQTYICNVNHKPSNTKVDKKVEPKSCDKTHTCPPCPAPEAAGGPSVFLFPPKPKDTLMISRTPEVTCVVVSVSHEDPEVKFNWYVDGVEVHNAKTKPREEQYNSTYRVVSVLTVLHQDWLNGKEYKCKVSNKALPAPIEKTISKAKGQPREPQVYTLPPSREEMTKNQVSLSCAVKGFYPSDIAVEWESNGQPENNYKTTPPVLDSDGSFFLVSKLTVDKSRWQQGNVFSCSVMHEALHNRFTQKSLSLSPGK
light: DIQMTQSPSSVSASVGDRVTITCQSSQSVYNNNWLSWLQQKPGKAPKRLIYDASKLESGVPSRFSGSGSGTDFTLTISSVQPEDAATYYCAGGFTGNVYTFGGGTKVEIKRTVAAPSVFIFPPSDEQLKSGTASVVCLLNNFYPREAKVQWKVDNALQSGNSQESVTEQDSKDSTYSLSSTLTLSKADYEKHKVYACEVTHQGLSSPVTKSFNRGEC
scFv: DIQMTQSPSSLSASVGDRVTITCRARQSIGTAIHWYQQKPGCAPKLLIKYASESISGVPSRFSGSGSGTDFTLTISSLQPEDFATYYCQQSGSWPYTFGQGTKLEIKGGGSGGSGGCPPCGGSGGEVQLVESGGGLVKPGGSLRLSCAASGFTFSRYNMNWVRQAPGKGLEWVSSISTSSNYIYYADSVKGRFTFSRDNAKNSLDLQMSGLRAEDTAIYYCTRGWGPFDYWGCGTLVTVSSEPKSSDKTHTCPPCPAPEAAGGPSVFLFPPKPKDTLMISRTPEVTCVVVSVSHEDPEVKFNWYVDGVEVHNAKTKPREEQYNSTYRVVSVLTVLHQDWLNGKEYKCKVSNKALPAPIEKTISKAKGQPREPQVYTLPPSREEMTKNQVSLWCLVKGFYPSDIAVEWESNGQPENNYKTTPPVLDSDGSFFLYSKLTVDKSRWQQGNVFSCSVMHEALHNHYTQKSLSLSPGK
notes: IgG1-AAS; also called JNJ-88549968; CALRB421 Fab x CD3 spFv
T cell-mediated cytotoxicity EC50 (nM), ELF-153 MPL CALRdel52 [1]: 0.034 nM | T cell-mediated cytotoxicity EC50 (nM), OCI-M2 MPL CALRdel52 [1]: 0.61 nM | T cell-mediated cytotoxicity EC50 (nM), ELF-153 MPL CALRins5 [2]: 0.094 nM | T cell-mediated cytotoxicity EC50 (nM), OCI-M2 MPL CALRins5 [2]: 1.69 nM | % Active [3]: 98% | Kd [3]: 0.0664 nM | % Active [4]: 94% | Kd [4]: 0.0357 nM | % Active [5]: 94% | Kd [5]: 0.225 nM | % Active [6]: 98% | Kd [6]: 0.0171 nM | % Active [7]: 99% | Kd [7]: 0.0622 nM | % Active [8]: 96% | Kd [8]: 0.301 nM | EC50 (read off the curve) [9]: ~5 nM | EC50 (read off the curve) [10]: ~2 nM | EC50 [11]: 23.8 nM
